Laboratory results as given in article PMC5986701, “A quantitative characterization of interaction between prion protein with nucleic acids”.

B1: Lef-DNA (dsDNA)
DNA 1: GAGCTTCAAAGGGTG
DNA 2: CACCCTTTGAAGCTC
B2: RQ11+12 (structured_RNA)
RNA: GGGGUUUCCAACCGGAAUUUGAGGGAUGCCUAGGCAUCCCCCGUGCGUCCCUUUACGAGGGAUUGUCGACUCUAGUCGACGUCUGGGCGAAAAAUGUACGAGAGGACCUUUUCGGUACAGACGGUACCUGAGGGAUGCCUAGGCAUCCCCGCGCGCCGGUUUCGGACCUCCAGUGCGUGUUACCGCACUGUCGACCC
B3: NC-DNA (dsDNA)
DNA 1: GACTTGTGGAAAATCTCTAGCAGTGCAT
DNA 2: ATGCACTGCTAGAGATTTTCCACAAGTC
B4: MNV (structured_RNA)
RNA: GGGUUCAUAGCCUAUUCGGCUUUUAAAGGACCUUUUUCCCUCGCGUAGCUAGCUACGCGAGGUGACCCCCCGAAGGGGGGUGCCCC
B5: RQT157 (RQ157) (structured_RNA)
RNA: GGGGUUUCGAACCGGAAUUUGAGGGAUGCCUAGGCAUCCCCCGUGCGUCCCUUUACGAGGGAUUGUCGACUCUAGAGGAUCCGGUACCUGAGGGAUGCCUAGGCAUCCCCGCGCGCCGGUUUCGGACCUCCAGUGCGUGUUACCGCACUGUCGACCC

How the values were obtained:
[1] = biological target: T1, alpha-PrP (human recombinant prion protein) (human, UniProt P04156 23-230); experiment: fluorescence anisotropy; pH 5
[2] = biological target: T1, alpha-PrP (human recombinant prion …); experiment: fluorescence anisotropy; pH 7.2

Binder | Kd [1] [µM] | Kd [2] [µM] | Kd ([1]; pseudoknot) [µM] | Kd ([2]; pseudoknot) [µM]
B1 | 1.25 ± 0.32 | 5.73 ± 0.57 | – | –
CAGGGUGGCACCUGGGGGCAGCCCCACGGUGGUGGCUG (structured_RNA) [Mm38] | – | – | 3.82 ± 0.4 | –
GCCCCAUGGAGGUGGCUGGGGCCAGCCUCAUGGAGGUGGCUGGGGC (structured_RNA) [Cm47 (Cm48 in Table 2)] | – | – | 1.51 ± 0.35 | 1.61 ± 0.4
B2 | – | 2.2 ± 1.5 | – | –
B3 | 1.11 ± 0.23 | 1.29 ± 0.21 | – | –
GCCUCAUGGUGGUGGCUGGGGGCAGCCUCAUGGUGGUGGCUGGGG (structured_RNA) [Hm45] | – | – | 2.9 ± 0.41 | 3.34 ± 0.15
B4 | – | 4.15 ± 0.61 | – | –
B5 | – | 2.89 ± 1.5 | – | –
GUCAAGGACAAGGUCAAGGUCAAGGUUCUUUUACUGCUUUGGGC (structured_RNA) [Ym44] | – | – | 1.63 ± 0.4 | 1.79 ± 0.57
